Data from paper PMC6662825, “The MTR4 helicase recruits nuclear adaptors of the human RNA exosome using distinct arch-interacting motifs” (Nature Communications, 2019).
Residue numbers refer to the chain shown, from its start.

How the values were obtained:
Details in all cases: both partners purified
MTR4-KOW = molecular target: T1, MTR4-KOW (human, UniProt P42285 645-787); assay: NMR titration; 1H-15N HSQC of 53 μM 15N-labelled MTR4-KOW with 0.25, 0.5, 1, 2 and 6 molar equivalents of unlabeled NVL^167–216; 298 K; phosphate buffered saline, 10% D2O
T1 construct: human MTR4 KOW domain, residues 645–787; Named without GST in MST, NMR and ITC; the methods say the His-GST tag was cleaved with 3C protease 'when appropriate', so it was probably removed; Isotope-labelled for NMR; also called unlabeled MTR4 KOW; 15N-labelled MTR4-KOW; source: E. coli BL21 star (DE3), purified (Ni-NTA, heparin, SEC); minimal medium with 15N/13C for NMR
T1 sequence (looked up): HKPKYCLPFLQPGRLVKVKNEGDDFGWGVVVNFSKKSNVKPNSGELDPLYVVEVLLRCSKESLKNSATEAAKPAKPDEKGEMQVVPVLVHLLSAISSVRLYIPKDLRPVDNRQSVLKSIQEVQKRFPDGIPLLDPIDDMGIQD

MTR4-∆N = molecular target: T2, MTR4-∆N (human, UniProt P42285 75-1042); assay: ITC; 500 µM NVL injected into 40 µM MTR4-∆N; 25 °C; 50 mM Hepes/NaOH pH 7.5, 150 mM NaCl, 0.5 mM TCEP
T2 construct: Used in ITC, named without GST; the tag was probably cleaved ('when appropriate'); also called MTR4-∆N (the reactant); source: E. coli BL21 star (DE3), purified (Ni-NTA, heparin, SEC)
T2 sequence (looked up): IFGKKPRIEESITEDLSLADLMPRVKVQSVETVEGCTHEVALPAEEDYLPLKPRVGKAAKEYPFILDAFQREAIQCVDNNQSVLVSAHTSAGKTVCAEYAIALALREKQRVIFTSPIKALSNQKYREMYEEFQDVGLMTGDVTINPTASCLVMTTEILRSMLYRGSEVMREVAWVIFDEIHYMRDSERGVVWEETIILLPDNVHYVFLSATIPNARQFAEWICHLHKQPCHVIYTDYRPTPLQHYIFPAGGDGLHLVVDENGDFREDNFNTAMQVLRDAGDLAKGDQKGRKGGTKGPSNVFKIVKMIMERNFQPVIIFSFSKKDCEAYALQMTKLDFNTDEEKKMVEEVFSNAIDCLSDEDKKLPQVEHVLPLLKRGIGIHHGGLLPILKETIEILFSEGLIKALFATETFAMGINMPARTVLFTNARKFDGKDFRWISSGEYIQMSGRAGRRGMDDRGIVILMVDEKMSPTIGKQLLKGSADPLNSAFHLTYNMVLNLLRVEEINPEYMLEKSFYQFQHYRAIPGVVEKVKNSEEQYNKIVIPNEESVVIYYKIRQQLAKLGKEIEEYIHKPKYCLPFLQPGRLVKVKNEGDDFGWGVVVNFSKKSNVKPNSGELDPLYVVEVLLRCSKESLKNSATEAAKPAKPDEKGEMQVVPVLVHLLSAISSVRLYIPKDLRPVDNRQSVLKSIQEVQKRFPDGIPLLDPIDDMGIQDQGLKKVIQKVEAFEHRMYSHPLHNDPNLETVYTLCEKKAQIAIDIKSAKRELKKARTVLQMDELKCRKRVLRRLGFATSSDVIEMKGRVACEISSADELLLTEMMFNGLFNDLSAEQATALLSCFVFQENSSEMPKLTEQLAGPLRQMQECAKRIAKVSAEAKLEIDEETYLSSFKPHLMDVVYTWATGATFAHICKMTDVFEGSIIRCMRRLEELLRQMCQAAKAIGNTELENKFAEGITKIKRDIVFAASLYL

MTR4∆N2 (70–1042) = molecular target: T3, MTR4∆N2 (70–1042) (human, UniProt P42285 70-1042); assay: crystal structure; MTR4∆N2 (70–1042) mixed with 2 molar excess of NVL (167–216), with ADP and MgCl2; 3.07 Å, space group P6(1); PDB 6RO1
T3 construct: human MTR4; Crystallised with ADP and MgCl2 in the buffer; source: E. coli, purified; GST fusion cleaved with TEV; not shown: GST, N-terminal, cleaved
T3 sequence (looked up): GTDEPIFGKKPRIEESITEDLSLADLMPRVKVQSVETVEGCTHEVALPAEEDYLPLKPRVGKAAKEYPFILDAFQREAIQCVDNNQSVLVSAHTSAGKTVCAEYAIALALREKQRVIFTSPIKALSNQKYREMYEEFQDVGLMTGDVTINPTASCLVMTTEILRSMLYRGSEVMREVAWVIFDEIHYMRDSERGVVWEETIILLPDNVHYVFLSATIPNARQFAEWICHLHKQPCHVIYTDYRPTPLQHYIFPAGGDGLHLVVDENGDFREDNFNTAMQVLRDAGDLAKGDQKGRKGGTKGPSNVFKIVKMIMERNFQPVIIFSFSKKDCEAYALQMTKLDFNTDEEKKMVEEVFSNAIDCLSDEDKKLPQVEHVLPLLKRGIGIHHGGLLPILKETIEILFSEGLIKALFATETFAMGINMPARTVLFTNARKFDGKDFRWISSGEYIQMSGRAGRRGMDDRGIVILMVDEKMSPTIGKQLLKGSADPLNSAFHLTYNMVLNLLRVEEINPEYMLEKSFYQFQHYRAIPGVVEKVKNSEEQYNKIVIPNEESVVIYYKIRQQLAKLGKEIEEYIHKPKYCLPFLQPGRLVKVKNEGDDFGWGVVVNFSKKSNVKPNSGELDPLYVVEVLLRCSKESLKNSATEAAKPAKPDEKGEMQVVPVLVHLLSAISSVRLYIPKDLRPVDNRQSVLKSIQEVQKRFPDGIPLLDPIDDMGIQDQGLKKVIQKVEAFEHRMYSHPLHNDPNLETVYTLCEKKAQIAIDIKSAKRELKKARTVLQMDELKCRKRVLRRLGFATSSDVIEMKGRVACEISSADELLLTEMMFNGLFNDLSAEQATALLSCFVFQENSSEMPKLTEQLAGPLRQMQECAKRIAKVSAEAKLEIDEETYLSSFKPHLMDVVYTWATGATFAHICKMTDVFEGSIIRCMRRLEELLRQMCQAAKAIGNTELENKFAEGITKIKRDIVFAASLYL

GST-MTR4∆N R743E = molecular target: T4, GST-MTR4∆N R743E (human, UniProt P42285 75-1042, R743E); assay: pull-down; GST-MTR4∆N (WT or mutants) as bait, 30 μM, with 60 μM Trx-NOP53^84–123 in 30 μl, glutathione sepharose; 50 mM Hepes pH 7.5, 150 mM NaCl, 5% glycerol, 0.05% NP40, 1 mM DTT, 4 °C; SDS-PAGE, Coomassie
T4 construct: also called R743E mutant; source: E. coli BL21 star (DE3), purified (Ni-NTA, heparin, SEC); not shown: 6xHis-GST, N-terminal, kept
T4 sequence (looked up): T2 sequence (looked up) with R669E

GST-MTR4-∆N = molecular target: T5, GST-MTR4-∆N (human, UniProt P42285 75-1042); assay: as above
T5 construct: Tag is cleavable with 3C protease; kept for the GST pull-downs; also called GST-tagged MTR4∆N; source: E. coli BL21 star (DE3), purified (Ni-NTA, heparin, SEC); not shown: 6xHis-GST, N-terminal, kept
T5 sequence (looked up): T2 sequence (looked up)

GST-MTR4∆N F677E = molecular target: T6, GST-MTR4∆N F677E (human, UniProt P42285 75-1042, F677E); assay: as above
T6 construct: source: E. coli BL21 star (DE3), purified (Ni-NTA, heparin, SEC); not shown: 6xHis-GST, N-terminal, kept
T6 sequence (looked up): T2 sequence (looked up) with F603E

Measured: binding result

B1: NVL^167–216 (peptide, UniProt O15381 167-216, looked up)
chain: KDSEGGWFIDKTPSVKKDSFFLDLSCEKSNPKKPITEIQDSKDSSLLESD
notes: Named without Trx in ITC, NMR and crystallisation; the methods say tags were cleaved with 3C protease 'when appropriate', so the tag was probably removed; also called NVL peptide; source: E. coli BL21 star (DE3), purified (Ni-NTA, SEC)
binds: MTR4-KOW | MTR4-∆N | MTR4∆N2 (70–1042)

B2: Trx-NOP53^84–123 (domain or fragment)
chain: not shown
notes: human NOP53 (also known as GLTSCR2), residues 84–123; also called human Nop53 orthologue; human Nop53; not shown: Trx, N-terminal, kept
binds: GST-MTR4∆N R743E | GST-MTR4-∆N | GST-MTR4∆N F677E
